Data reported in the DeepSol protein solubility set.

Test: soluble on expression in E. coli; label from the status in PepcDB or PDB records

Sequence	soluble on expression in E. coli
MAKKRGKPEIDWTDDDKEIIWVSKSEIKRDSEHLKKLGAELIELTPQNLEKIPLDEDLKYAIRQAQSFKLEARRRQIQFIGKLLRNRDSAPIQDALDKVKNRHNQQQALLHKLELIRDQLINMGDASLNQLLSEYPQLDRQHLRNLIRMAQKEKQINKPAKNYHEILQYLKSELIV	not soluble
MAKKSTGFDHDPVRVLVAWNPSSHGAEAIECAAWLARTTNVTVQCVTAFLRPWPSSSGNKLGSKYKKWFKKEAFACEDAVKAAFSRAEIPTAMWADTVSVFCDGTNEAALLSEAAHKFGADIVLLGSEAAAPKGRFLAGSTADALLHSSPQPLGLTPRKPKLSKRGVTRVNFAYTGDATDNTSLIRTARLAAAWDVPLRVLALSPEGFGVPPISDTLELPEDLALEWRENTFAVLDRSRDTVHKAHPDVIVETEIGSGNGWSGAIESLKWKKGDLLCFGSTPLGAFERVFIGSQATEILPYVSVPVLMIPATTKVDKKSKK	soluble
MAKNDIWTPLESNPDSLYLYSCKLGQSKLKFVDIYGFNNDLLDMIPQPVQAVIFLYPVNDNIVSENNTNDKHNLKENFDNVWFIKQYIPNSCGTIALLHLYGNLRNKFELDKDSVLDDFFNKVNEMSAEKRGQELKNNKSIENLHHEFCGQVENRDDILDVDTHFIVFVQIEGKIIELDGRKDHPTVHCFTNGDNFLYDTGKIIQDKFIEKCKDDLRFSALAVIPNDNFDII	soluble
MAKNFAEQIVESLENQGVKRIYGLVGDSLNPIVDAVRTSNIEWIHVRNEETAAFAAEAESLLTGELAVCAASCGPGNTHLVQGLYDANRNGAKVLAIASHIPSRQIGSHFFQETHPEALFAECSGYCEMANSALQGEVILHHAIQSTMAGKGVSVLVLPGDVTMQDVEDDTFTGSRISNARPIMYPDPAEAADLVKAINEAKTVTLFCGAGVRYARKEVLELAEKIKAPIGHALGGKMYIQYDNPFDVGMSGLLGYGACHDASNDADLLILLGTDFPYNDFLPRKNVAQIDIDGSHIGRRTRISHPVVGDVAATISNILPHIEEKTDRSFLDRMLKKHHRKLNDVIEAYTSGVEKHTPIHPEFVANIIDEIAADDAVFTIDTGMCNVWGARYITPNGKREMIGSFRHGTMANALPQAIGASAANPRRQVVTFSGDGGLGMLMGELLTVKLHNLPIKTVVFNNSSLGMVKLEMLVQGMPEHETDHEHVDFDAIAAAVGIEHIKITDPAKARQQLQAAFDYDGPVLIDIITDPNALSIPPNITMDMLMGFSRAATRTVFGGGVGHMVDMAKSNLRNIPKP	not soluble
MAKRKKKEVFDWEDEDQEEIIWVSKSEIKRDAEDLKQLGEKIVNLTKANLAKIPLDESLLDAIELAQRLQKEARRRQLQYIGKLFRGIDVEPIREALDKIENKHNQQQAMLHKIEKVRDELVEKGDVALTDLLNDYPNGDRQQLRNLIRSAQKELEQNKPSKAYREIYQMLKVLMLED	not soluble
MAKSLTFSTFSPNNTLKKNVIPIVLLHGWGLNSGVWQPLLELFHRNDESIYQLITIDLPGFGINSAVDIKPYSLANICHHIEQVIDQPAIYLGWSLGGLIATEMSLKYPEKVLASITVASSPYFVEQPTDNWPGIKENVLESFHKQLAQDTAKTISGFLKIQAMGSPHIRQDLKLITQLVMAHTLPSQQTLADSLALLSNSDLRLHLSKIKQPLLRLYGHNDSLVPKEVMEKISYLAPNSDQHLFADASHAPFISHLDDFYQVLVVWLDSHFNLEHHHHHH	not soluble
MAKTIFYFSYRKTEELHAKAKELKKITTDYGYELTDDYQKANVIISIGGDGAFLKSVRETGFRQDCLYAGIALTEQLGQYCDFHINQLDEIIKAAIEDRWLVRRYPTIYGTVNNTKAFYVLNEFNIRSSIIRTLTMDLYINDSHFETFRGDGMVISTPTGSTAYNKSVNGSIVDPLLPSMQVSELASINNNKFRTLGSSFILSPKRKLRIEIASEEGNNEFPMIGMDSEALSIQHVHEVNLEVGDRFINIIKLPKNSFWDKVKRNFLLEHHHHHH	soluble
MAKVCYFTGRKTVSANNRSHAMNKTKRVAKPNLQKVTVLIDGKPKKVWASARALKSGKVERVLEHHHHHH	not soluble
MALANFDGPFDLLLQLIHSHKLDITEVALAQVTDEFIAYTKTLSSSAEDLDEVTEFLVVASTLLDLKAARLVPRGEVDSEEDLALLETRDLLFARLLQYRAYKQVADLFADWQRDAARAYPATLSLEEHHANLLPEVKIGKNADEFAELAAAVFRPKPDHVDTGHIHQVAVSVPEQAGRILNTLKVAGENTWVTFGALIADAELNMIVVGRFLALLELYKARAIGIEQPEPLQDMSVAWTGLDVDPAVVAASNWE	soluble
MALAQQLRSESDFEQLPDDVAVSANIADIEEKRGFTSHFVFVIEVKTKGGSKYLIYRRYRQFYALQSKLEERFGPESKNSPFTCSLPTLPAKVYMGAKQEIAETRIPALNAYMKNLLSLPVCVLMDPDVRIFFYQSAYDAEQVPQALRRLRPRTRKIKGVSPQGAIMDRMEAPRAEALFDFTGNSKLELSFKAGDVIFLLSKINKDWLEGTSQGATGIFPGSFVKILKDFPEDEDTTNWLRCYFYEDTGKTIKDIAVEEDLSSTPLFKDLLALMRREFQREDIALSYQDAEGDLVRLLSDEDVGLMVKQARGLPSQKRLFPWKLHVTQKDNYSVYNTVP	soluble
MALINNRSKFSFFNKVRVLLKNILKPDESVEDVVDEHFRFTSSLSLDAPDGQIENLYQDEKDGKYHLTLFDNGLTGATGILPAAYTEWLIERKLRYNDDAPKAFMDMFDHRMYCLSYLAWQKMHLSGDENRRDNNVLNNVLLSLGGITPQTVSVTGLAYVAFYSQPVRSLAGLEQLLSLIHQIRVSINPFRGTFENTEPSEQGVLGNCLYTLGEGPVIGNVRWVVDSHFDVVLGPVDYRKAQELMPGKDSHYFIRQQIRSYIGDVLKFKIYVKIYPGNNDNQLNINNKLGFNLSLGSETENYKERCFCIF	not soluble
MALMYPFHVAQPPLNWSEHLWVSEVSPAKESFITTICEHRQAQWDNQDLLRHLQDSVAILTREDQRHVNAVHAAANMPANP	not soluble
MALPLLPGNSFNRNVGKEKFHKSQHWGFCNNVMMLVSDEKPGIGGEPLLGQKIKPKCSIYPKGDGSDVPSWVAFDKQVLSFDAYLEEEVLDKSQTNYRIRYYKIYFYPEDDTIQVNEPEVKNSGLLQGTSIRRHRITLPPPDEDQFYTVYHFNVGTEVVFYGRTFKIYDCDAFTRNFLRKIGVKVNPPVQCPEDPYMKIRREVVEHVEPLRPYESLDTLKQFLQYHGKILCFFCLWDDSVSMFGDRRELILHYFLCDDTIEIKELLPHSSGRDALKMFLRRSKLPKNCPPRVYQPGQITDRAVLNSYGDFIKNQADGYLFDRYKLGKVDQEFYKDSDLSLGVTINVWGRKVLLYDCDEFTKSYYKSKYGIENFTSVSCKPPSPPPKIERKFPPYNGFGSEEDSLRNCIDLKPTPHRRNFKKFMEKDSYGSKSNILRFFAKLVTDKCVDLDRMFVISYYLGDDTISVFEPIERNSGIAGGMFLKRSRVKKPGQEVFKSELSEYIKAEELYIGVTVNVNGYLFRLLNADEYTLNYMEQNTDKYPFSNLKLALQKLKQEEGKSRELKQVFKAADSKHTNMVDYNTFRDILMSLTVGNLAEQEFVTIARHYRVPEGTCSDMDFLIALAHEKFKKNMFENFDTFIYSCVYEDREKKNVLPTKDIKRLCKSSRLPLSDDLLESLLSRFEDSEKQIDYKSFFSALNWRKNPVPELQPASYLKERCEDVWLGMPSPIPAKYIDYWTFLKDAFGLEEE	soluble
MALTCTDMSDAVAGSDAEGLTADAIVVGAGLAGLVAACELADRGLRVLILDQENRANVGGQAFWSFGGLFLVNSPEQRRLGIRDSHELALQDWLGTAAFDRPEDYWPEQWAHAYVDFAAGEKRSWLRARGLKIFRWWAGPSVVVTTRRGTATRCPVSTSPGVLGRLWSTYSCVSCVIAPRCALRTATRSTNLEHHHHHH	not soluble
MALVEFLMETLDGLKGTDIVHFDVRGKSSITDNMIICTGTSSRQVSAMADNLITECKKAGFETFGEEGKNTADWIVVDLGQAIVHIMQRDAREMYQLEKLWALEHHHHHH	not soluble
MAMAVPVSARPQSPAEGFYAINNQFQTNGPKGFSEIKILANEDMFLRMDLPGVPDEGGLSVYHNRSQETVVVFAKAPKVHTHDSTERRYQTMTGIGCSCCAISSITTHMSDGVFRVILSKTRIDPHRSPCTDPALTGPVLQPHPLAFPQPTMAYESKQLPNGKLFVRADMPGVPKENFTVSVTNGRVKVTGQAPAVSHDSSGRFYSGDVAMLSTPVDIPSRRIKTIAKNGVIRLLIPPF	soluble
MAMDLRDPNVWISHLLENLPEEKLASALKDDNPDWEYIDGEIVKLGSLAHAQLDIPELQRRGLQLLASESKDFRLLAHLLRTLQHAGDPLLALHLLTLYVEHYWTVAAPQNMAHKKRFASQIIKRFETVLKAFHKTLPQRSAILCWVSWRNWRSAGSHITSRNWHRLPMIFLPCTSVRLIVRLLLRSPLRRPPVVHHKPPSRLKAA	not soluble
MANELTWHDVLAEEKQQPYFLNTLQTVASERQSGVTIYPPQKDVFNAFRFTELGDVKVVILGQDPYHGPGQAHGLAFSVRPGIAIPPSLLNMYKELENTIPGFTRPNHGYLESWARQGVLLLNTVLTVRAGQAHSHASLGWETFTDKVISLINQHREGVVFLLWGSHAQKKGAIIDKQRHHVLKAPQPSPLSAHRGFFGCNHFVLANQWLEQHGETPIDWMPVLPAESE	soluble
MANHPRAGQPAQQSDLINVAQLTSQYYVLQPDAEDPAHAVKFGTSGHRGSSVRHSFNEAHILAIAQAIAEVRHQHGISGPCYVGKDTHALSEPAFISVLEVLTANGVDVVVQQDNGFTPTPAISHVILCHNAQGKALADGIVITPSHNPPEDGGIKYNPPNGGPADTNLTSVIEKRANQLLSQNLKGVKRQTLDKAWQSNHLREQDLLQPYVEGLVDVVDIPAIQQAGLKLGVDPLGGSGIAYWQRIAEYYKLDLTLVNNAIDQTFRFMHLDHDGVIRMDCSSESAMAGLLALRDKFDLAFANDPDYDRHGIVTPAGLMNPNHYLAVSINYLFQHRPQWGAGVAVGKTLVSSAMIDRVVADLGRKLVEVPVGFKWFVDGLHDGSFGFGGEESAGASFLRFNGTPWSTDKDGIIMCLLAAEITAVTGKDPQRHYDDLAQRFGAPSYNRIQAPATQAQKNALSRLSPEMVKANTLAGDPITARLTNAPGNGASIGGLKVMTENGWFAARPSGTEEAYKIYCESFLGAEHREKIEQEAVKIVSEVLAEAK	not soluble
MANRIQEIALSDKNLGSKIKAVYKTERDIYVNGAPVRGRVFTASSEKQRDFEIFVPHLRNSQMLNGREEVKLIDPVARINVKRNNIGNSRSIDMVVYAKRLEVVGGNK	not soluble
MANSITADEIREQFSQAMSAMYQQEVPQYGTLLELVADVNLAVLENNPQLHEKMVNADELARLNVERHGAIRVGTAQELATLRRMFAIMGMYPVSYYDLSQAGVPVHSTAFRPIDDASLARNPFRVFTSLLRLELIENEILRQKAAEILRQRDIFTPRCRQLLEEYEQQGGFNETQAQEFVQEALETFRWHQSATVDEETYRALHNEHRLIADVVCFPGCHINHLTPRTLDIDRVQSMMPECGIEPKILIEGPPRREVPILLRQTSFKALEETVLFAGQKQGTHTARFGEIEQRGVALTPKGRQLYDDLLRNAGTGQDNLTHQMHLQETFRTFPDSEFLMRQQGLAWFRYRLTPSGEAHRQAIHPGDDPQPLIERGWVVAQPITYEDFLPVSAAGIFQSNLGNETQTRSHGNASREAFEQALGCPVLDEFQLYQEAEERSKRRCGLL	not soluble
